This series concerns the molecule itself. Put plainly: SEC; dimer/monomer state of the purified protein before UV irradiation; 150 mM NaCl, 25 mM Tris-HCl, pH 8.0.

Positions count from the first letter of the chain named. Numbers in names are those of the source.

B1: UVR8 W92 single-Trp mutant (receptor, Arabidopsis thaliana, UniProt Q9FN03 1-440, looked up)
chain: MAEDMAADEVTAPPRKVLIISAGASHSVALLSGDIVCSWGRGEDGQLGHGDAEDRPSPTQLSALDGHQIVSVTCGADHTVAYSQSGMEVYSFGWGDFGRLGHGNSSDLFTPLPIKALHGIRIKQIACGDSHCLAVTMEGEVQSWGRNQNGQLGLGDTEDSLVPQKIQAFEGIRIKMVAAGAEHTAAVTEDGDLYGWGWGRYGNLGLGDRTDRLVPERVTSTGGEKMSMVACGWRHTISVSYSGALYTYGWSKYGQLGHGDLEDHLIPHKLEALSNSFISQISGGWRHTMALTSDGKLYGWGWNKFGQVGVGNNLDQCSPVQVRFPDDQKVVQVSCGWRHTLAVTERNNVFAWGRGTNGQLGIGESVDRNFPKIIEALSVDGASGQHIESSNIDPSSGKSWVSPAERYAVVPDETGLTDGSSKGNGGDISVPQTDVKRVRI
notes: UVR8, Arabidopsis thaliana; mutant plasmid built on the wild-type plasmid; also called W92F; source: E. coli BL21-DE3, purified (Ni-Sepharose, Source-15Q)
Take B1: the binding result is “binds”.

B2: UVR8 W198 single-Trp mutant (receptor, Arabidopsis thaliana, UniProt Q9FN03 1-440, looked up)
chain: B1 chain with F92W, W198F
notes: UVR8, Arabidopsis thaliana; mutant plasmid built on the wild-type plasmid; also called W198F; source: E. coli BL21-DE3, purified (Ni-Sepharose, Source-15Q)
Regarding B2, the binding result is “binds”.

B3: UVR8 W337F (receptor, Arabidopsis thaliana, UniProt Q9FN03 1-440, looked up)
chain: B1 chain with F92W, W337F
notes: UVR8, Arabidopsis thaliana; mutant plasmid built on the wild-type plasmid; source: E. coli BL21-DE3, purified (Ni-Sepharose, Source-15Q)
For B3, the binding result is recorded as “binds”.

B4: UVR8 W196 single-Trp mutant (receptor, Arabidopsis thaliana, UniProt Q9FN03 1-440, looked up)
chain: B1 chain with F92W, W196F
notes: UVR8, Arabidopsis thaliana; mutant plasmid built on the wild-type plasmid; also called W196F; source: E. coli BL21-DE3, purified (Ni-Sepharose, Source-15Q)
On to B4, for which the binding result is listed as “binds”.

B5: UVR8 W300 single-Trp mutant (receptor, Arabidopsis thaliana, UniProt Q9FN03 1-440, looked up)
chain: B1 chain with F92W, W300F
notes: UVR8, Arabidopsis thaliana; mutant plasmid built on the wild-type plasmid; also called W300F; source: E. coli BL21-DE3, purified (Ni-Sepharose, Source-15Q)
On to B5, for which the binding result was “binds”.

B6: UVR8 W94F (receptor, Arabidopsis thaliana, UniProt Q9FN03 1-440, looked up)
chain: B1 chain with F92W, W94F
notes: as for B3
As to B6, the binding result is “binds”.

B7: UVR8 W144 single-Trp mutant (receptor, Arabidopsis thaliana, UniProt Q9FN03 1-440, looked up)
chain: B1 chain with F92W, W144F
notes: UVR8, Arabidopsis thaliana; mutant plasmid built on the wild-type plasmid; also called W144F; source: E. coli BL21-DE3, purified (Ni-Sepharose, Source-15Q)
Consider B7, for which the binding result is “binds”.

These data come from publication PMC8748919, “Dynamics and mechanism of dimer dissociation of photoreceptor UVR8” (Nature Communications, 2022).
